Data as given in US20210388105A1 (ELPISCIENCE SUZHOU BIOPHARMA, published 2021).
Substitutions are numbered along the chain they refer to.

T1: kw27 (Intracellular C-terminal EGFP fusion, left out of the letters)
T1 construct: not shown: C-terminal EGFP (GFPSpark) reporter of vector pCMV3-GFPSpark and any linker to it
T1 chain: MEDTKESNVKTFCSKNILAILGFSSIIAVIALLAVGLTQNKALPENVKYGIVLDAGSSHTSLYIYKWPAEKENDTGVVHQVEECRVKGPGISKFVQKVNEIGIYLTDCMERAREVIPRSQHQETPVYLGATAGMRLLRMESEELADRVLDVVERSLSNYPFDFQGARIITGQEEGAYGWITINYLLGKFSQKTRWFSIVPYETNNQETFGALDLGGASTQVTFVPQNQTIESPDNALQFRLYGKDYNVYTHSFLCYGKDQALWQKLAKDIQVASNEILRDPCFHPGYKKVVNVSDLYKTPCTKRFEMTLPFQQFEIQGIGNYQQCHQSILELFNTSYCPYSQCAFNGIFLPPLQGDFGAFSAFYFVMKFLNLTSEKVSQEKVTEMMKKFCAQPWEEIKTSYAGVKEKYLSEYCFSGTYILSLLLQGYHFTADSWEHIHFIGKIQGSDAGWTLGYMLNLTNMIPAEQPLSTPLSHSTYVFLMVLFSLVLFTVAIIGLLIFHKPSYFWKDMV

T2: KW27-20 (human CD39 mutant, C-terminal EGFP) (human, UniProt P49961 1-510)
T2 construct: expressed on HEK293F cells; not shown: C-terminal EGFP fusion (vector pCMV3-GFPSpark)
T2 chain: T1 chain with R138A, M139A, E142K

T3: KW27-2 (human CD39 mutant, C-terminal EGFP) (human, UniProt P49961 1-510)
T3 construct: expressed on HEK293F cells; not shown: C-terminal EGFP fusion (vector pCMV3-GFPSpark)
T3 chain: T1 chain with V81S, E82A, R111A, V115A

T4: KW27-6 (human CD39 mutant, C-terminal EGFP) (human, UniProt P49961 1-510)
T4 construct: expressed on HEK293F cells; not shown: C-terminal EGFP fusion (vector pCMV3-GFPSpark)
T4 chain: T1 chain with Q96A, N99A, E143A, R147E

B1: Antibody 9-8B (antibody, V domains shown)
VH: QIQLVQSGPELKKPGETVKISCKASGYTFTHYGMNWVKQAPGKGLKWMGWINTYTGELTYADDFKGRFAFSLETSASTAYLQINNLKNEDTATYFCARRAYYRYDYVMDYWGQGTSVTVSS
VL: DIVMTQSQKFMSTSVGDRVSVTCKASHNVGTNVAWYQQKPGQSPKALIYSASYRYSGVPGRFTGSGSGTDFTLTISNVQSEDLAEYFCHQYNNYPYTFGGGTKLEIK
B2: c35 (antibody, V domains shown)
VH: EVRLQQSGAELVKPGASVKLSCTASGFNIEDTYVHWMKQRPEQGLEWIGRIDPAIDNSKYDPKFQGKATITAVSSSNTAYLQLSSLTSEDTAVYYCALYDGYNVYAMDYWGQGTSVTVSS
VL: DIVMTQAAFSNPVTLGTSASISCRSSKNLLHSNGITYLYWYLQRPGQSPQLLIYRASTLASGVPNRFSGSESGTDFTLRISRVEAEDVGVYYCAQLLELPHTFGGGTKLEIK
notes: its making is not described; also called chimeric antibody c35
B3: c34 (antibody, V domains shown)
VH: EIQVQQSGPELVKPGASVKVSCKASGYSFTDYNMYWVKQSHGKSLEWIGFIDPYNGYTSYNQKFKGKATLTIDKSSSTAFMHLNSLTSEDSAVYYCAIYGYDDAYYFDYWGQGTTLTVSS
VL: QIVLTQSPAIMSASPGEKVTITCSATSSVSYMHWFRQKPGTSPKLWIYSTSNLASGVPARFSGSGSGTSYSLTISRMAAEDAATYYCQQRITYPFTFGSGTKLEIT
notes: its making is not described; also called chimeric antibody c34
B4: Antibody T895 (antibody, V domains shown)
VH: EVQLQQSGPELVKPGASVKMSCKASGYTFTDYNMHWVKQSHGRTLEWIGYIVPLNGGSTFNQKFKGRATLTVNTSSRTAYMELRSLTSEDSAAYYCARGGTRFAYWGQGTLVTVSA
VL: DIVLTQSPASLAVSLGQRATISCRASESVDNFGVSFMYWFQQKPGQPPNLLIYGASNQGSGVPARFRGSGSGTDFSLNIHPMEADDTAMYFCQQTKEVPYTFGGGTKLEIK
notes: also called 31895
B5: hu23.H5L5 (antibody, V domains shown)
VH: QVQLVQSGAEVKKPGASVKVSCKASGYNLKDTFLHWVRQAPGQGLEWMGRIDPANGNIKYDPKFQGRVTITADTSANTAYMELISLRSEDTAVYYCANSPYYYGSGYRIFDVWGQGTTVTVSS
VL: QIVLTQSPATLSLSPGERATLSCSAFSSVNYMHWYQQKPGQAPRLLIYTTSNLASGIPTRFSGSGSGTSYTLTISSLEPEDFAVYYCQQRSTYPFTFGQGTKLEIK
notes: humanized c23

Biological target: T1, kw27
Test: FACS on transfected HEK293F cells, relative binding = AlexaFluor647 / GFP
Protocol: (§1) Briefly, the human CD39 mutants were generated by gene synthesis and then cloned into an expression vector pCMV3-GFPSpark. The vectors containing the validated mutated sequences were prepared and transfected into HEK293F cells. Three days post transfection, the cells were collected to testing EGFP for transgene expression. A range of dosages of antibodies (start from 100 nM, 3-folds dilution, 11 points) were tested on the 20 generated mutants and stained by AlexFluor647 labelled anti-hIgG by FACS. Antibody binding was descripted as relative binding which is derived from AlexFluor647 intensity divided by GFP intensity.

Binder	binding result
B1	binds
B2	binds
B3	binds
B4	binds
B5	binds

Biological target: T2, KW27-20 (human CD39 mutant, C-terminal …)
Test: as above
Protocol: as §1

Binder	binding result
B1	binds
B2	binds
B3	binds
B4	no binding

Biological target: T3, KW27-2 (human CD39 mutant, C-terminal …)
Test: as above
Protocol: as §1

Binder	binding result
B1	binds
B3	binds
B4	binds
B5	binds

Biological target: T4, KW27-6 (human CD39 mutant, C-terminal …)
Test: as above
Protocol: as §1

Binder	binding result
B1	no binding
B2	binds
B3	binds
B4	binds
B5	no binding
